Data set [1] has as its target L68V CzrA (Staphylococcus aureus). The experiment in a line: SEC.
The target of data set [2] is V66A/L68V CzrA (Staphylococcus aureus). The data set is described as follows: SEC. On the technique in general: In gel filtration, larger molecules generally elute earlier.
The target of data set [3] is V66A CzrA (Staphylococcus aureus). The experiment in a line: SEC.
The target of data set [4] is L68A CzrA (Staphylococcus aureus). The data set is described as follows: SEC.
In the next data set the target is V66A CzrA (Staphylococcus aureus, UniProt O85142 1-106, V66A). The experiment in a line: fluorescence anisotropy. (In general: Fluorescence polarisation rises when a labelled molecule tumbles more slowly, as on binding a larger partner.)
Another data set addresses H96C CzrA (Staphylococcus aureus, UniProt O85142 1-106, H96C). The experiment in a line: fluorescence anisotropy.

What is called stoichiometry N is the number of molecules, sites or subunits per partner or assembly. Consider L68V CzrA (natural protein), for which the stoichiometry N in data set [1] is 2.

Take V66A/L68V CzrA (natural protein): in data set [2], the stoichiometry N amounted to 2.

V66A CzrA (natural protein) displayed a stoichiometry N in data set [3] of 2.

In data set [4], L68A CzrA (natural protein) displayed a stoichiometry N of 2.

B1: 28-bp native CzrO (dsDNA)
DNA 1: TAATATATGAACAAATATTCAGATGAAA
DNA 2: TTTCATCTGAATATTTGTTCATATATTA
Regarding B1, the binding signal with V66A CzrA is 460 fold tighter than Zn2 wild-type CzrA. In addition, the binding result with H96C CzrA was “binds”.

The values are drawn from article PMC3602352.
